Measured values from US20100178253A1 (published 2010).
Bridges are numbered along the chain shown (N, C = ends).

B1: Compound 4 ([Peptide 1]-DY-650 conjugate) (peptide)
peptide: Ac-AGSCYCSGPPRFECWCYETEGTGGGK-NH2
modifications: disulfide 6-14, 4-16; not fully specified (residue 26); also: DY-650 dye attached, site not given here
B2: Compound 2 ([Peptide 1]-DY-631 conjugate) (peptide)
peptide: Ac-AGSCYCSGPPRFECWCYETEGTGGGK-NH2
modifications: disulfide 6-14, 4-16; not fully specified (residue 26); also: DY-631 dye attached, site not given here
B3: Compound 6 ([Peptide 1]-DY-652 conjugate) (peptide)
peptide: Ac-AGSCYCSGPPRFECWCYETEGTGGGK-NH2
modifications: disulfide 6-14, 4-16; not fully specified (residue 26); also: DY-652 dye attached, site not given here
B4: Compound 5 ([Peptide 1]-DY-651 conjugate) (peptide)
peptide: Ac-AGSCYCSGPPRFECWCYETEGTGGGK-NH2
modifications: disulfide 6-14, 4-16; not fully specified (residue 26); also: DY-651 dye attached, site not given here
B5: Compound 1 ([Peptide 1]-DY-630 conjugate) (peptide)
peptide: Ac-AGSCYCSGPPRFECWCYETEGTGGGK-NH2
modifications: disulfide 6-14, 4-16; not fully specified (residue 26); also: DY-630 dye attached, site not given here
notes: Printed in three-letter code, turned into one-letter code here
B6: Compound 3 ([Peptide 1]-DY-633 conjugate) (peptide)
peptide: Ac-AGSCYCSGPPRFECWCYETEGTGGGK-NH2
modifications: disulfide 6-14, 4-16; not fully specified (residue 26); also: DY-633 dye attached, site not given here

molecular target: T1, human c-Met/Fc chimera (R&D Systems) (human, UniProt P08581 25-932); experiment: fluorescence polarisation (anisotropy), 5 nM dye-labelled peptide, c-Met/Fc 0-250 nM, one-site fit
T1 construct: Bought from R&D Systems; Printed once as 'c-Met/Fe chimera' [sic]; also called human c-Met/Fe chimera; not shown: Fc part (and any linker or tag) of the bought chimera
T1 sequence (P08581 25-932 limits assumed, change not shown): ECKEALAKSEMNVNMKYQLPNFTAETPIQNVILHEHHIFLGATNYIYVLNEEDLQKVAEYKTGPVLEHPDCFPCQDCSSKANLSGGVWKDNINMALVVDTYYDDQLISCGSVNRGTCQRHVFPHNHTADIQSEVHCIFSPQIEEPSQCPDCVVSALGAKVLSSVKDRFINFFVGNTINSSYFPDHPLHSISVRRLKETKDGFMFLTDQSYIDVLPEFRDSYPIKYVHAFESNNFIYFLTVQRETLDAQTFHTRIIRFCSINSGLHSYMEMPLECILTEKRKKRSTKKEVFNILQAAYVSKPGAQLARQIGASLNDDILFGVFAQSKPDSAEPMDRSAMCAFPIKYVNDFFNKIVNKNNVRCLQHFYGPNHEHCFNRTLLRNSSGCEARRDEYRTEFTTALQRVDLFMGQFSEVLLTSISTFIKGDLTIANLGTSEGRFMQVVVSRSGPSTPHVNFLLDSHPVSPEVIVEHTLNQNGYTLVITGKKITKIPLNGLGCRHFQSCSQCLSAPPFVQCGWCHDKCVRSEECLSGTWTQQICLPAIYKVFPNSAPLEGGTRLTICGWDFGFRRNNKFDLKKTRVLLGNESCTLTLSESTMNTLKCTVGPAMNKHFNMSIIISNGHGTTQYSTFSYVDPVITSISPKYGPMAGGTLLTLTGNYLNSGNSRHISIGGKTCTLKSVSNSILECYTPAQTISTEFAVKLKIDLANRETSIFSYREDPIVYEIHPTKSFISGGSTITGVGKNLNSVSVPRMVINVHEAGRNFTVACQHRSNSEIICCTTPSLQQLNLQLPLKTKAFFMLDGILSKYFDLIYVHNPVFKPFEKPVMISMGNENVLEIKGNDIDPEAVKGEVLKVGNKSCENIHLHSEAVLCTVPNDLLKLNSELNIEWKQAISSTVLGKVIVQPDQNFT
Method: The fluorescence anisotropy measurements were performed in 384-well microplates in a volume of 10 μL in binding buffer (PBS, 0.01% Tween-20, pH 7.5) using a Tecan Safire fluorescence polarisation plate reader (Tecan, US) at Ex 635/Em 678 nm. The to concentration of dye-labelled peptide was held constant (5 nM) and the concentration of the human c-Met/Fe chimera (R&D Systems) was varied from 0-250 nM. Binding mixtures were equilibrated in the microplate for 10 min at 30° C. The observed change in anisotropy was fit to the equation

In order of rising Kd:
1. B2  0.5 nM
2. B6  0.5 nM
3. B3  0.9 nM
4. B4  2.2 nM
5. B5  2.2 nM
6. B1  3.2 nM

molecular target: T2, human serum albumin (human, UniProt P02768 25-609); experiment: fluorescence polarisation, change of polarisation value with human serum albumin
T2 construct: also called HSA; plasma protein (PPB)
T2 sequence (P02768 25-609 limits assumed): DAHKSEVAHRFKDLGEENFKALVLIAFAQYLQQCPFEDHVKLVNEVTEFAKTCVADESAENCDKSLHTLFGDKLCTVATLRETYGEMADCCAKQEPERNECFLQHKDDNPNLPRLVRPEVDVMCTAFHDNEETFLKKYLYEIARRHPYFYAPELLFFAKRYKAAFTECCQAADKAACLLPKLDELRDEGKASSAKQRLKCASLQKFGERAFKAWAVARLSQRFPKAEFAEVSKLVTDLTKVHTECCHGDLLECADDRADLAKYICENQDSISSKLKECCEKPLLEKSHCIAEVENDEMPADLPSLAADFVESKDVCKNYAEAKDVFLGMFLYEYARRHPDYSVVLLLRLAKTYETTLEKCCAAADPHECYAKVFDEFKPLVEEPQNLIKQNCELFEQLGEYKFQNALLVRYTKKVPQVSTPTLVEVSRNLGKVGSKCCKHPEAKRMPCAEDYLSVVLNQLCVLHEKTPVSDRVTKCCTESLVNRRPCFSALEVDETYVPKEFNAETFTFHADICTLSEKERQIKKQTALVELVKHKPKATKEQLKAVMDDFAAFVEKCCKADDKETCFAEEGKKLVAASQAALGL

In order of rising PPB (% change in polarisation value):
1. B6  27%
2. B2  33%
3. B5  36%
4. B3  46%
5. B4  49%
6. B1  55%
